How the values were obtained:
CD14 (Homo sapiens) = CD14 (Homo sapiens) (UniProt P08571); conditions: cited from earlier work
[1] = biological target: Apolipoprotein B (Homo sapiens) (UniProt P04114); conditions: cited from earlier work
[2] = biological target: T1, CD1d-β2m complex (glycosylated CD1d-H6 with untagged β2m) (human, UniProt P15813 20-301; P61769 21-119, glycosylated (N-linked glycans from expression in HEK293F)); assay: equilibrium binding assay (depletion of prey from the supernatant, no wash steps); CD1d-β2m on Ni-NTA agarose beads at 0-40 μM, SapB at 680 nM; 50 mM HEPES pH 7.0, 150 mM NaCl, 0.05% digitonin, 2.5 mM CaCl2, 2.5 mM MgCl2; 1 hour at room temperature; unbound SapB detected by SYPRO Ruby; both proteins with the endogenous lipids they co-purify with; conditions: both partners purified
T1 construct: CD1d, human, extracellular domain, residues 20-301 of UniProt P15813; expressed behind the vector's N-terminal secretion signal; β-2-microglobulin, human, residues 21-119 of UniProt P61769; untagged; Carries endogenous human lipids as purified; The results call β2m full-length, the methods give residues 21-119; also called CD1d-H 6-β 2m; gCD1d; not shown: His6, C-terminal, kept

Chain of Apolipoprotein B (Homo sapiens) (P04114 28-2179): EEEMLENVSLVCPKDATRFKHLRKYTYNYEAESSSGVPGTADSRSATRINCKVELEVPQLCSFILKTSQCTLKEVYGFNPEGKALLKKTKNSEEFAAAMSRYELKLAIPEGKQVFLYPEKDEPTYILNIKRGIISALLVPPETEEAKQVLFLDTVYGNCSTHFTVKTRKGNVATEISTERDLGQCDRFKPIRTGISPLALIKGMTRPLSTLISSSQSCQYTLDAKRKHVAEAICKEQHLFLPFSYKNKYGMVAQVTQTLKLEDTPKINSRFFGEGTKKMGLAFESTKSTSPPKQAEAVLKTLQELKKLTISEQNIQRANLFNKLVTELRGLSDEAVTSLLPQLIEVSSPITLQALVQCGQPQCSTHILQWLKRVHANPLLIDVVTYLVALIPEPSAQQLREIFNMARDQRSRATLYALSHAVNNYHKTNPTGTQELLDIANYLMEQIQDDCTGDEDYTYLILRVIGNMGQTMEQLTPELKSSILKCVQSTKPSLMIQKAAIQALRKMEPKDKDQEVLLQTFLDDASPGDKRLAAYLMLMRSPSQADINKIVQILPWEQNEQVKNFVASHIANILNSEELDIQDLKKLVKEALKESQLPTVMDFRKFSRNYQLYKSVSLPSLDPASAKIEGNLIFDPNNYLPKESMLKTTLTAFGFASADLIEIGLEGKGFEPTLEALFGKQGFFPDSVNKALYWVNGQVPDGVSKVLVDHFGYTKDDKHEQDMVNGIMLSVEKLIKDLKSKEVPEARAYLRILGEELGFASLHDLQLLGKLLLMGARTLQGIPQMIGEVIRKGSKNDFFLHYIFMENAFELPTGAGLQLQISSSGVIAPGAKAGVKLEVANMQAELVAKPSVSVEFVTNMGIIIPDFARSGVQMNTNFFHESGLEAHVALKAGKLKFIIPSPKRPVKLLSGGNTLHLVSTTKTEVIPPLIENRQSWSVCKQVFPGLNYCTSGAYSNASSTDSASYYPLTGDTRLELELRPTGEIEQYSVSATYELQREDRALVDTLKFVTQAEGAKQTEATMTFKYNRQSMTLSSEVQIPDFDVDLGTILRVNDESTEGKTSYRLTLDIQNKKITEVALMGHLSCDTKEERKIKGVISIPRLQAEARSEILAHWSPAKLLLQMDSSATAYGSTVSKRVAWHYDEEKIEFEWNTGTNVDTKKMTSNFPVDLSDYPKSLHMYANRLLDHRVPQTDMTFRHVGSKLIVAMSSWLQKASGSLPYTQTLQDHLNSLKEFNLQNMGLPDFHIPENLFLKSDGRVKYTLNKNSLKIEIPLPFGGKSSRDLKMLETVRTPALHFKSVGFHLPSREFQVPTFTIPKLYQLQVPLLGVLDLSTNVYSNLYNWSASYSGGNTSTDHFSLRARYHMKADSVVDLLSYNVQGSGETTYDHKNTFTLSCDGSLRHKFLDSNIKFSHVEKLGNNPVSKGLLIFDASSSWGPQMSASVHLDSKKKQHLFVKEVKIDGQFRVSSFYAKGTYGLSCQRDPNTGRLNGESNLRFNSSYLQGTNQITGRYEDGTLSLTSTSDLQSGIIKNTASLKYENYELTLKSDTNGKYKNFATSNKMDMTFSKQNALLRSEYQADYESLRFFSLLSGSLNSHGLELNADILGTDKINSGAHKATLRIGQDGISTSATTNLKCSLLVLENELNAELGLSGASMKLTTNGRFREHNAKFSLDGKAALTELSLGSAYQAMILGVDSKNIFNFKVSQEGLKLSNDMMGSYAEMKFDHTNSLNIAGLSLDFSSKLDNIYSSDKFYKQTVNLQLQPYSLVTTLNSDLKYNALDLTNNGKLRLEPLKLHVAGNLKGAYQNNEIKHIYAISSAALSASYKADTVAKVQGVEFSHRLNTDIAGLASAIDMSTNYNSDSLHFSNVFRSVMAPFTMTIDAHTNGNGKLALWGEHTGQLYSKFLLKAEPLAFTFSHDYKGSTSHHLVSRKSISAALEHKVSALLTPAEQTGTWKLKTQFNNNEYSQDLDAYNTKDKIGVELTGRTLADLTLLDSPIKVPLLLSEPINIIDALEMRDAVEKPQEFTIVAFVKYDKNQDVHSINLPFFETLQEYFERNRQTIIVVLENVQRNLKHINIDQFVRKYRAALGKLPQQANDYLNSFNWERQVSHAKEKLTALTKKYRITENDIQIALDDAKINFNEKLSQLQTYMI
Chain of CD14 (Homo sapiens) (P08571 20-345): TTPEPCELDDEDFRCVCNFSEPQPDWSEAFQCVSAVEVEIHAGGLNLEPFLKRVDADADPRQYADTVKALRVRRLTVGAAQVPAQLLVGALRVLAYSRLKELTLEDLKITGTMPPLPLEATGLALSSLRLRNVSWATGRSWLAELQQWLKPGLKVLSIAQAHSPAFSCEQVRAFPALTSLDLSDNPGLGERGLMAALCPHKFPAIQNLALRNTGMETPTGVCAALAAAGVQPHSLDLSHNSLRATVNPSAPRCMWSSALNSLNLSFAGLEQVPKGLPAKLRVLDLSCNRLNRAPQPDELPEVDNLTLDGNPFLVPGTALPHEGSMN

LPS binding protein (LBP) (from UniProt P18428)
Kd (CD14 (Homo sapiens)): 5.52 nM

Microsomal Triglyceride Transfer protein (from UniProt P55157)
Kd [1]: 20 nM

B1: Saposin B, untagged, expressed in E. coli (unglycosylated) (natural protein, human, UniProt P07602 195-274, looked up)
chain: GDVCQDCIQMVTDIQTAVRTNSTFVQALVEHVKEECDRLGPGMADICKNYISQYSEIAIQMMMHMQPKEICALVGFCDEV
notes: Saposin B, the segment of human prosaposin (PSAP) residues 195-274, UniProt P07602; Cloned into pET-15b by NcoI and XhoI to give untagged protein; Co-purifies with E. coli lipid; also called SapB; ugSapB; source: E. coli Origami (DE3), purified (heat treatment, anion exchange, SEC)
Kd [2]: > 40000 nM
